One assay has as its system Rat2 fibroblasts. The experiment in a line: Time-lapse videomicroscopy random migration assay (cell speed, polarity). It is filed as cell-based, rat. Particulars: Rat2 cells expressing the construct. Here is the method:
(§1) Cells adapted to microscopy media (Life Technologies, Rockville, Md.) as described above were trypsinized, counted, and resuspended in microscopy media at 7.14×10^3 cells/mL. 1.4 mL (10,000 cells) of this cell suspension was added to a ΔT dish (Bioptechs Inc., Butler, Pa.) that had previously been coated overnight with 10 μg/mL fibronectin (Becton Dickinson) at 4° C. and then blocked with lmg/mL cell-culture-grade BSA (Sigma, St. Louis, Mo.). Cells were allowed to attach and spread for 1 hour at 37° C. before movies were initiated. 10x phase contrast movies were 4.5 hours long with a frame taken every five minutes. A custom time-lapse collection script written in IPLabs was used to automate microscope and camera function. Light was shutter controlled. […] Cell paths were generated from the calculated centroid positions and parameters (speed and membrane flow) were calculated from the resulting path file. Speed was calculated using the Central Difference Method in DIAS, which is equivalent to a root mean squared calculation. […]
Rat 2 cells were exposed to 0, 5 nM, 25 nM, 50 nM, or 500 nM cytochalasin D and motility was measured. One set of cells received no cytochalasin D. Other cells received a low dose of cytochalasin D (e.g. 5 nM or 25 nM) or a high dose of cytochalasin D. (e.g. 500 nM) The motility of the treated cells was assessed using the motility assay described above.

Assay [1] deals with Rat2 cells. Briefly: Count of vinculin- or zyxin-positive focal adhesions per cell. It is filed as cell-based, rat. Particulars: Rat2 cells after complete spreading. Here is the method:
Rat2 cells (ATCC, Manassas, Va.) were plated and allowed to spread for 1.5-2 hours on acid-washed glass coverslips that had been coated overnight at 4° C. with 10 μg/mL fibronectin (Becton Dickinson, Franklin Lakes, N.J.). Cells were fixed with ice-cold 4% paraformaldehyde in PBS for 10 minutes at room temperature. Cells were washed twice with PBS and then permeabilized with 0.2% Triton X-100 in PBS for 3 minutes and washed two more times with PBS. Coverslips were blocked for 30 minutes in 5% BSA (RIA grade)/5% normalized Donkey serum in PBS. All subsequent antibody steps were incubated in 1% BSA/PBS for at least 30 minutes and washes were in PBS. Anti-Mena polyclonal antisera (2197, produced by Gertler laboratory) was used at 1:400, anti-VASP polyclonal antisera (M4, Alexis Corporation, San Diego, Calif.) was used at 1:400, coumarin-phallicidin (Molecular Probes Inc., Eugene, Oreg.) was used at 1:20, anti-vinculin monoclonal antibody (F7g, a kind gift from K. Burridge) was used at 1:20. All secondary antibodies (Texas Red-, Cy5-Donkey anti-rabbit or anti-mouse, Jackson ImmunoResearch Laboratories, Inc., West Grove, Pa.) were used at 1:500. Coverslips were mounted with Fluoromount G (Electron Microscopy Sciences, Fort Washington, Pa.) and viewed on a Zeiss Axiophot microscope equipped with a Deltavision imaging and software system (Applied Precision Inc., Issaquah, Wash.).
Cell-population analysis was undertaken to explore the hypothesis that focal adhesion formation and number are unaffected by overexpression or sequestration of Ena/VASP proteins. Because cell migration depends on adhesion as well as actin polymerization at the leading edge, the various cell populations were analyzed to determine if the assembly, morphology or distribution of focal adhesions was affected. EGFP-Mena overexpressing (the “high ” population), FPPPP-mito (SEQ ID NO: 3) and control cells were each stained after complete spreading with a battery of focal adhesion markers (FAK, vinculin, paxillin, tensin, phosphotyrosine, and zyxin).

Assay [2] relates to Rat2 cells. The experiment in a line: Membrane flow (protrusion/retraction, shape change) from digitized movies. It is filed as cell-based, rat. Particulars: centroid fixed, independent of translocation. Here is the method: as §1, with “controlled. Movies were considered analysis-quality if there were no focus or bubble problems and cells remained alive and dividing throughout the experiment. Once a movie met the quality control criteria, it was transferred into the image analysis program DIAS (Solltech, Inc., Oakdale, Iowa.) and cells were outlined using the Trace on Movie command.” for “controlled.”

The test system of a further assay is MV^D7 cells. The experiment in a line: Time-lapse videomicroscopy cell speed in Ena/VASP-deficient MV^D7 fibroblasts. It is filed as cell-based, mouse. Conditions: MV^D7 cells expressing the construct vs parental MV^D7. Here is the method:
as §1, with “controlled. Movies were considered analysis-quality if there were no focus or bubble problems and cells remained alive and dividing throughout the experiment. Once a movie met the quality control criteria, it was transferred into the image analysis program DIAS (Solltech, Inc., Oakdale, Iowa.) and cells were outlined using the Trace on Movie command.” for “controlled.”

The test system of the next assay is Listeria. Briefly: Listeria motility in MVD7 cells expressing Mena constructs. It is filed as cell-based, Listeria monocytogenes. Particulars: high expression level, compared with GFP-Mena high (FIG. 11). As for the experimental part:
MVD7 cells were seeded onto a Bioptics dish the night before an experiment, and Listeria was also cultured overnight taking care to not over saturate the bacterial culture. MVD7 cells were then exposed to Listeria. The Bioptics dishes were centrifuged at 500×g for 3 min in a swinging bucket centrifuge to force the bacteria up against the MVD7 cells. The cells were then incubated for 1.5 hrs at 37° C. The plates were washed 3 times with media to remove bacteria not associated with cells. Bacteria were then viewed with 100x phase contrast microscopy. Time-lapse movies were recorded and speeds were quantitated with DIAS software.

B1: EGFP-Mena: EGFP fused to full-length Mena (amino acids 1-541 of SEQ ID NO: 2), expressed from retroviral vector pMSCV (protein)
chain: MSEQSICQARAAVMVYDDANKKWVPAGGSTGFSRVHIYHHTGNNTFRVVGRKIQDHQVVINCAIPKGLKYNQATQTFHQWRDARQVYGLNFGSKEDANVFASAMMHALEVLNSQEAAQSKVTATQDSTNLRCIFCGPTLPRQNSQLPAQVQNGPSQEELEIQRRQLQEQQRQKELERERMERERLERERLERERLERERLEQEQLERQRQEREHVERLERERLERLERERQERERERLEQLEREQVEWERERRMSNAAPSSDSSLSSAPLPEYSSCQPPSAPPPSYAKVISAPVSDATPDYAVVTALPPTSTPPTPPLRHAATRFATSLGSAFHPVLPHYATVPRPLNKNSRPSSPVNTPSSQPPAAKSCAWPTSNFSPLPPSPPIMISSPPGKATGPRPVLPVCVSSPVPQMPPSPTAPNGSLDSVTYPVSPPPTSGPAAPPPPPPPPPPPPPPPLPPPPLPPLASLSHCGSQASPPPGTPLASTPSSKPSVLPSPSAGAPASAETPLNPELGDSSASEPGLQAASQPAESPTPQGLVLG
modifications: left off: large carriers
Turning to B1, in the assay with Rat2 fibroblasts, the “cell polarity / polarized morphology” value was “distinct lack of polarity”. The cell speed result in the assay on Rat2 fibroblasts (fibronectin, 4.5 hour movies) was “cell speeds decreased with increasing levels of EGFP-Mena expression”; with MV^D7 cells, “The MV^D7 cells migrated significantly faster than the MV^D7/EGFP-Mena cells”. Besides, in the assay with Rat2 cells [1], the “Number of Focal Adhesions per Cell (±SD), Vinculin+” value came to 72.7 ± 14.4. Besides, in the assay with Rat2 cells [1], the “Number of Focal Adhesions per Cell (±SD), Zyxin+” value came to 73.6 ± 20. In addition, in the assay with Rat2 cells [2], the “average membrane flow per unit time (shape change)” value was “changed shape the least”. The “Listeria motility (speed)” value with Listeria is on record as “wild-type Listeria are mobile in MVD7 cells that express EGFP-Mena”.

B2: APPPP-mito: Control of FPPPP-mito with phenylalanine changed to alanine in each repeat; does not bind Ena/VASP proteins (protein)
chain: VNASDAPPPPTDEELRLALPETPMLLGFNAPATSEPSSFEAPPPPTDEELRLALPETPMLLGFNAPATSEPSSFEAPPPPTEDELEIIRETASSLDSSFTRGDLASLRNAINRHSQNFSDAPPIPTEEELNGRGGRPTSEEFSSLNSGDFTDDENSETTEEEIDRLADLRDRGTGKHSRNAGFLPLNPFASSPVPSLSPKVSKISAPALISDITKKTPFKNPSQPLNVFNKKTTTKTVTKKPTPVKTAPKLAELPATKPQETVLRENKTPFIEKQAETNKQSINMPSLPVIQKEATESDKEEMKPQTEEKMVEESESANNANGKNRSAGIEEGKLIAKSAEDEKAKEEPGNHTTLILAMLAIGVFSLGAFIKIIQLRKNN
modifications: left off: large carriers
Turning to B2, in the assay on Rat2 cells [1], the “Number of Focal Adhesions per Cell (±SD), Vinculin+” value was determined as 81.6 ± 13.9 and the “Number of Focal Adhesions per Cell (±SD), Zyxin+” value is 79.2 ± 29.

For the origin of these results see US6716597B2, “Methods and products for regulating cell motility” (priority 2000, dated 2004).
